Experimental data reported in the nanobody polyreactivity screen of Harvey et al. (2022).

Test: yeast display, Sf9 membrane polyspecificity reagent, FACS + sequencing; frameworks hold sequencing errors
Outline: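 Nanobodies from a synthetic yeast display library (Saccharomyces cerevisiae BJ5465), induced 36–48 hours with galactose, were stained 1 hour at 4 °C with 10% biotinylated, detergent-solubilized Sf9 membrane reagent, enriched on streptavidin microbeads, then FACS-sorted. Anti-HA (expression) and streptavidin (reagent binding) fluorescence set low and high (top ~1%) gates. Polyreactivity labels come from the gate of origin. Genes were colony-PCR amplified, MiSeq 2 × 250 sequenced and filtered by CDR length.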

Sequence	polyreactivity (PSR sort gate)
QVQLVESGGGLVQAGGSLRLSCAASGIIFDYNAMGWYRQAPGKERELVAAISGRSGRTYYADSVKGRFTISRDNAKNTVYLQMNSLKPEDTAVYYCAARWYAGGNYWGQGTQVTVSS	high polyreactivity
QVQLVESGGGLVQAGGSLRLSCAASGIIFELYAMGWYRQAPGKERELVAAISISGDSTYYADSVTGRFTISRDTAKNTVYLQMKSLKPEDTAVYYCAKQSYRWPYLVTKYYEYDYWGQGTQVTVSS	low polyreactivity
QVQLVESGGGLVQAGGSLRLSCAASGIIFENYAMGWYRQAPGKERELVAAINKRGSRTYFADSVTGRFTISRDNAKNTVYLQMNSLKPEDTAVYYCNAVNPYYAPTDRRVGYDYWGQGTQVTVSS	high polyreactivity
QVQLVESGGGLVQAGGSLRLSCAASGIIFERYAMGWYRQAPGKERELVATISWSGGSTRYADSVKGRFTISRDNAKNTVYLQMNSLKPEDTAVYYCAAPSYFRMGYWGQGTQVTVSS	low polyreactivity
QVQLVESGGGLVQAGGSLRLSCAASGIIFESYAMGSYRQAPGKEREFVAAISSRGGSTYYADSVKGRFTISRDNAKNTVYLQMNSLKPEDTAVYYCAARGYRRTFDYREYDSWGQGTQVTVSS	low polyreactivity
QVQLVESGGGLVQAGGSLRLSCAASGIIFESYAMGWYRPAPGKERELVAAISWDGGSTYYADSVKGRFTISRDNAKNTVYLQMNSQKPEDTAVYYCAAESYGIYDGYDYWGQGTQVTVSS	high polyreactivity
QVQLVESGGGLVQAGGSLRLSCAASGIIFEYYAMGWYIQAPGKERELVAAISSDTSTNYADSVKGRFTISRDNAKNTVYLQMNSLKPEDTAVYYCNADAYYDTYGIGVGTDYDYWGQGTQVTVSS	low polyreactivity
QVQLVESGGGLVQAGGSLRLSCAASGIIFEYYAMGWYRQAPGKERELVAAITWNGGRTYYADSVKGRFTISRDNAKNTVYLQMNSLKPEDTAVYYCAARKPRSGGPFDYWGQGTQVTVSS	high polyreactivity
QVQLVESGGGLVQAGGSLRLSCAASGIIFFHYAMGWYRQAPGKERELVAAITWSGGSTYYADSVKGRFTISRDNAKNTVYLKMNSLKPEDSAVYYCNAVLHRRLYDYWGQGPQVTVSS	high polyreactivity
QVQLVESGGGLVQAGGSLRLSCAASGIIFFRYAMGWYRQAPGKERELVAAISLSGGRTYYADSVKGRFTISRDNANNTVYLQMNSVKPEDTAVYYCNTLHRYSSQRYDYWGQGTQVTVSS	high polyreactivity
QVQLVESGGGLVQAGGSLRLSCAASGIIFFYNAMGWYRQAPGKERELVAAIRRGGRTNYADSVKGRFTISRDNAKNTVYLQMNSLKPEDTAVYYCNKDFYPGDYWGQGTQVTVSS	low polyreactivity
QVQLVESGGGLVQAGGSLRLSCAASGIIFFYNAMGWYRQAPGKERELVAAITIGGITYADSVKGRFTISRDNAKNTVYLQMNSLNPEDTAVYYCNKRTDSDSGHWEHDYWGQGTQVTVSS	low polyreactivity
QVQLVESGGGLVQAGGSLRLSCAASGIIFFYYAMGWYRQAPGKERELVAANSSDGSTYYADSVKGRFTISRDNAKNTVYLQMNSLKPEDTAVYYCAVDHYSARLLARYDYWGQGTQVTVSS	low polyreactivity
QVQLVESGGGLVQAGGSLRLSCAASGIIFFYYAMGWYRQAPGKERELVASISSGGSTNYADSVKGRFTISRDNAKNTVYLQMNSLKPEDTALYYCAARRYYVRIQGYKLDYWGHGTQVTVSS	low polyreactivity
QVQLVESGGGLVQAGGSLRLSCAASGIIFGDNAMGLYRQEPGKERELVATISSSASTNYADSVKGRFTISRDNAKNTVYLQMNSLKPEDTAVYYCAADVYSPPNYDYWGQGTQVTVSS	low polyreactivity
QVQLVESGGGLVQAGGSLRLSCAASGIIFGFNTMGWYRQAPGKERELVAAINGSDGSTYADSVKGRFTISRDNAKNTVYLLMNSLKPEDTAVYYCAARYGSRKEYTYADMDYWGQGTQVTVSS	low polyreactivity
QVQLVESGGGLVQAGGSLRLSCAASGIIFGGYAMGWYRQAPGKERELVARITSGGSTNYADSVKGRFTISRDNAKNTVYLQMNSLKPEDTAVYYCAARSFWKWGYYYWGQGTQVTVSS	high polyreactivity
QVQLVESGGGLVQAGGSLRLSCAASGIIFGGYAMGWYRQAPGKERELVARITSGGSTNYADSVKGRFTISRDNAKNTVYLQMNSLKPEDTAVYYCNARGGWSWRFYYWGQGTQVTVSS	high polyreactivity
QVQLVESGGGLVQAGGSLRLSCAASGIIFGGYDMGWYRQAPGKERELVAGIRSGGSTYYADSVKGRFTISRDNAKNTVYLQMNSLKPEDTAVYYCAADSYTEVDYWGQGSQVTVSS	low polyreactivity
QVQLVESGGGLVQAGGSLRLSCAASGIIFGGYTMGWSRQAPGKERELVAAISWSGVGTYYADSVKGRFTISRDNAKNTVYLQMNSLKPEDTAVYYCAAWAYYSDDDEYWGQGTQVTVSS	high polyreactivity
QVQLVESGGGLVQAGGSLRLSCAASGIIFGHYDMGWYRQAPGKERELVAAITFTGDSTYYADSVKGRFTISRDNAKNTVYLQMNSLKPEDTAVYYCAAETPVPWGSWGYDYWGQGTQVTVSS	low polyreactivity

Sequence	polyreactivity (PSR sort gate)
QVQLVESGGGLVQAGGSLRLSCAASGIIFGKNAMGWYRQAPGKERELVAAISSSGGSTYYADSVKGRFTISRDNAKNTVYLQMNSLKPEDTAVYYCATERGSRRSGSRMDYWGQGTQVTVSS	high polyreactivity
QVQLVESGGGLVQAGGSLRLSCAASGIIFGKYAMGGYRQAPGKERELVAAISSSGGRTYYADSGKGRFTISRDNAKNNVYLQMNSLKPEDTAVYYCAAVPGPGYYHYGYWGQGTQVTVSS	high polyreactivity
QVQLVESGGGLVQAGGSLRLSCAASGIIFGQNAMGWSRQSPGKESEVVAAITISGGSTYYADSVKGRFTISRDNAKNTVYLQMNSLKPEDTAVYYCAARRVTWKVIARGYRYGYWGQGTQVTVSS	low polyreactivity
QVQLVESGGGLVQAGGSLRLSCAASGIIFGRYAMGWYRQAPGKERELVAAISARGGSTYYADSVKGRFTISRDNAKNTVYLHMNSLKPEDTAVYYCAARAVYTQKRYDSWGQGTQVTVSS	high polyreactivity
QVQLVESGGGLVQAGGSLRLSCAASGIIFGRYAMGWYRQAPGKERELVAVISRSGGSTYYADSVKGRFTISRDNAKNTVYLQMNSLKPEDTAVYYCAARYTPTYNAGLDYWGQGTQVTVSS	high polyreactivity
QVQLVESGGGLVQAGGSLRLSCAASGIIFGRYDMGWYRQAPGKERELVAAITWSGGTTYYADSVKGRFTISRDNAKNTVYLQMNSLKPADTAVYYCNAVGRYSEDGYWGQGTQVTVSS	high polyreactivity
QVQLVESGGGLVQAGGSLRLSCAASGIIFGSYAMGWYRQAPGKERELVAGISKIGGRTYYADSVKGRFTISRDNAKNTVYLQMNSLKPEDTAVYYCNKVRTRERTDYDYWGQGTQVTVSS	low polyreactivity
QVQLVESGGGLVQAGGSLRLSCAASGIIFGSYAMGWYRQAPGKERELVAGISRRGDSTYYADSVKGRFTISRDNAKNTVYLQMNSLNPEDTAVYYCAADRYLYFYWWPHVGGSPTYGYWGQGTQVTVSS	high polyreactivity
QVQLVESGGGLVQAGGSLRLSCAASGIIFGTYVMGWYRQAPGKERELVAAINRSGGNTYYADSVKGRFTISRDNEKNTVYLQMNSLKPEDTAVYYCAAEEAYRSRRGGFDYWGQGTQVTVSS	high polyreactivity
QVQLVESGGGLVQAGGSLRLSCAASGIIFGYYAMGWYRQAPGKERELVAAINQDGSSTYYADSVKGRFTISRDNAKNTVYFQMNSLKPEDTAVYYCNARGVPRQDARMGYWGQGTQVTVSS	low polyreactivity
QVQLVESGGGLVQAGGSLRLSCAASGIIFGYYAMGWYRQAPGKERELVAAISRRGGSTYYADSVKGRFTISRDNAKNTVYLQMNSLKPEDTAVYYCAAVELRLSTPDMESWGQGTQVTVSS	high polyreactivity
QVQLVESGGGLVQAGGSLRLSCAASGIIFGYYAMGWYRQAPGKERELVAAITSGTSTYYADSVKGRFTISRDNAKNTVYLQMNSLKPEDTAVYYCNIVRRYGDEDSWGQGTQVTVSS	high polyreactivity
QVQLVESGGGLVQAGGSLRLSCAASGIIFGYYAMGWYRQAPGKERELVAGITYRTGSTYYADSVKGRFTISRDNAKNTVYLQMNFLKPEDTAVYYCAATQYKRKYSSWYYYWGQGTQVTVSS	high polyreactivity
QVQLVESGGGLVQAGGSLRLSCAASGIIFHIYAMGWYRQAPGTERELVAAISTGSSTYYADSVKGRFTISRDNAKNTVYLQMNSLKPEDTAVYYCNAVSRYLWVKGFDYWGQGTQVTVSS	low polyreactivity
QVQLVESGGGLVQAGGSLRLSCAASGIIFHYYAMGWYRQAPGKEREFVASISFSGSSTYYADSVKGRFTISRDNAKNTVYLQMNSLKPEDTAVYYCAARYLYGPKYYYWGQGTQVTVSS	high polyreactivity
QVQLVESGGGLVQAGGSLRLSCAASGIIFHYYAMGWYRQAPGKERELVAAISGSGGSTYYADSVKGRFTISRDNAKNTVYLQMNSLKPEDTAVYYCAAKLWGGGGYWGQGTQVTVSS	high polyreactivity
QVQLVESGGGLVQAGGSLRLSCAASGIIFHYYAMGWYRQAPGKERELVATISWDGGNTYYADSVKGRFTISRDNAKNSVYLKMNSLKPEDTAVYYCNVYDKAPAYDYWGQGTQVTVSS	low polyreactivity
QVQLVESGGGLVQAGGSLRLSCAASGIIFIFYDMGWYRQAPGKERELVATITSGTNTYADSVKGRFTISRDNAKNTVFLQMNSLKPEDTGVYYCAAGFSPASQLDYWGQGSQVTVSS	low polyreactivity
QVQLVESGGGLVQAGGSLRLSCAASGIIFIKYSMGWYRQAPGKERELVAAITSGGSTHYADSVKGRFTISRDNAKNTVYLQMNSLKPEDTAVYYCYADILRHVAYFKDRYQAGSYWGQGTQVTVSS	low polyreactivity
QVQLVESGGGLVQAGGSLRLSCAASGIIFIVNAMGWYRQAPGKERELVATISSSGDITRYADSVKGRFTISRDNAKYTVYLQMNSLKPEDTAVYYCAARLWTGYWGTAHPRYDYWGQGTQVTVSS	high polyreactivity
